Experimental findings from article doi:10.1101/850305 (bioRxiv, 2019) are described below.

The data set deals with the molecule itself. Kind of data set: crystal structure.

B1: E. coli LpxA UDP-N-acetylglucosamine acyltransferase (enzyme, UniProt P0A722 1-262, looked up)
chain: MIDKSAFVHPTAIVEEGASIGANAHIGPFCIVGPHVEIGEGTVLKSHVVVNGHTKIGRDNEIYQFASIGEVNQDLKYAGEPTRVEIGDRNRIRESVTIHRGTVQGGGLTKVGSDNLLMINAHIAHDCTVGNRCILANNATLAGHVSVDDFAIIGGMTAVHQFCIIGAHVMVGGCSGVAQDVPPYVIAQGNHATPFGVNIEGLKRRGFSREAITAIRNAYKLIYRSGKTLDEVKPEIAELAETYPEVKAFTDFFARSTRGLIR
In general, stoichiometry N refers to the number of molecules, sites or subunits per partner or assembly. With B1, the “stoichiometry N” value came to 3.
